Article PMC4951691

Assays:
[1] = target: Cryptococcus neoformans Golgi Reassembly and Stacking Protein (CnGRASP) (Cryptococcus neoformans); assay: dynamic light scattering; Nano-ZS, 20 °C, 25 mM Hepes/NaOH, 150 mM NaCl, 1 mM beta-mercaptoethanol, 10% glycerol, pH 7.4; mass worked out from the Rh of 3.9 nm
[2] = target: Cryptococcus neoformans Golgi Reassembly and Stacking Protein (CnGRASP) (Cryptococcus neoformans); assay: SEC; Superdex 200 (HR 10/30), Akta purifier; hydrodynamic radius from the partition coefficient against standard proteins (calibration kit LMW/HMW); CHAPS left out of the protein preparation
[3] = target: Cryptococcus neoformans Golgi Reassembly and Stacking Protein (CnGRASP) (Cryptococcus neoformans); assay: SEC + other: zone sedimentation in a sucrose gradient; Siegel and Monte model: Rh from SEC combined with the sedimentation coefficient (about 4.2 S) from a 10 to 35% sucrose gradient in 25 mM Hepes/NaOH, 150 mM NaCl, pH 7.4; CnGRASP less than 1 mg/mL; 100,000 g for 4 h at 4 °C

Measured: stoichiometry N

Cryptococcus neoformans Golgi Reassembly and Stacking Protein (CnGRASP) (natural protein)
2: all assays above
